Data on two molecules can be found in PMC3655262.

Numbering of substitutions follows the chain as printed. Read-outs that look alike come from different tables or passages of the source.

Common to all, as to assay: EMSA
Series [1] addresses T1, hZFP57zf1-4 (Homo sapiens, UniProt Q9NU63-3 172-287).
T1 sequence: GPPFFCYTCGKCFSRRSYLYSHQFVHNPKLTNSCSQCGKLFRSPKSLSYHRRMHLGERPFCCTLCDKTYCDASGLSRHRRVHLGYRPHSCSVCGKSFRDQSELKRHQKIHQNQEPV

Series [2] has as its target T2, hZFP57zf3-4E273A (Homo sapiens, UniProt Q9NU63-3 227-287, C232F;E273A).
T2 sequence: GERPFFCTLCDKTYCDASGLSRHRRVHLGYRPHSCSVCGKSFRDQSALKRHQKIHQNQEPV

The target of series [3] is T3, hZFP57zf3-4 (C232F) (Homo sapiens, UniProt Q9NU63-3 227-287, C232F).
T3 sequence: T2 sequence with A47E

In series [4] the target is T2, hZFP57zf3-4E273A. The source holds these as a separate data set.

B1: TGCmetCGC probe (both strands methylated) (dsDNA)
DNA 1: GTAATATTGCCGCAGTAATA
DNA 2: TATTACTGCGGCAATATTAC
modifications: 5-methylcytosine at C11 of strand 1 and C9 of strand 2
For the molecule B1, the binding result in series [1], in series [2] and in series [3] was “binds” in each case.

B2: TGCCGC unmethylated probe (dsDNA)
DNA 1: GTAATATTGCCGCAGTAATA
DNA 2: TATTACTGCGGCAATATTAC
B2: the binding result in series [4] is on record as “binds”.
